The record followed here is PMC13021935.

For this assay, the target named is CENP-A nucleosomes reconstituted on an 18 x 601 DNA array (xlCENP-A-myc/H4 tetramer with H2A/H2B dimers) (X. laevis | not stated) (UniProt Q569M3).

“Xenopus laevis M18BP1-L S760D (xlM18BP1-L^S760D-3xFLAG) (natural protein)” registered a centromere localisation (immunofluorescence, FLAG) on sperm nuclei in interphase egg extract immunodepleted of endogenous CENP-C and M18BP1, relative to WT FLAG-M18BP1-L (% of WT levels) of 30.
